Laboratory results: the nanobody polyreactivity screen of Harvey et al. (2022)

experiment: yeast display, Sf9 membrane polyspecificity reagent, FACS + sequencing; frameworks hold sequencing errors
In short: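 In a synthetic yeast display library (Saccharomyces cerevisiae BJ5465), nanobody expression was induced with galactose for 36–48 hours. FACS gates were set low and high (top ~1%) using anti-HA fluorescence for expression and streptavidin fluorescence for binding of the Sf9 membrane reagent. Each polyreactivity label is drawn from the gate of origin.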

Sequence | polyreactivity (PSR sort gate)
QVQLVESGGGLVQAGGSLRLSCAASGSTFRSYAMGWYRQAPGKERELVAAITSGANTNYADSVKGRFTISRDNAKNTVDLQMNSLKPEDTAVYYCAKASYIIFRIEYRSGYDYWGQGTQVTVSS | low polyreactivity
QVQLVESGGGLVQAGGSLRLSCAASGSTFRSYAMGWYRQAPGKERELVAAITWRGGSTDYADSVKGRFTISRDNAKNTVYLQMNSLKPEDTAVYYCAAAIWGDYGAYDYWGQGTQVTVSS | low polyreactivity
QVQLVESGGGLVQAGGSLRLSCAASGSTFRTNGMGWYRQAPGKERELVAAITRGTSTNYADSVKGRFTISRDNAKNTVYLQMNSLKPEDTAVYYCAADVTGGRKYDYWGQGTQVTVSS | low polyreactivity
QVQLVESGGGLVQAGGSLRLSCAASGSTFRTYAKGWYRQAPGKERELVASITRRGGRTYYADSVKGRFTISRDNAKNTVYLQMYSLKPEDTAVYYCAAADQQYDYWGQGTQVTVTS | high polyreactivity
QVQLVESGGGLVQAGGSLRLSCAASGSTFRTYAMGWYRQAPGKERELVAAISVSGGRTYYADSVKGRFTISRDNAKKTVYLQMNSLKPEDTAVYYCAARQYRYELEYWGQGTQVTVSS | low polyreactivity
QVQLVESGGGLVQAGGSLRLSCAASGSTFRTYAMGWYRQAPGKERELVATITRTGGSTYYADSVKGRFTISRDNAKNTVYLQMNSLKPEDTAVYYCAARRSHQYRGPHFNYWGQGTLVTVSS | low polyreactivity
QVQLVESGGGLVQAGGSLRLSCAASGSTFRTYAMGWYRQAPGKERELVAVISASGGSTYYADSVKGRFTISRDNAKNTVYLQMNSLKPEDTAVYYCAVAYSRGRYYYWGQGTQVTVSS | high polyreactivity
QVQLVESGGGLVQAGGSLRLSCAASGSTFRTYAMVWYRQAPGKERELVAAIRSRGGSTYYADSVKGRFTISRDNAKNTVYLQMNSLKPEDTAVYYCNAVPRWSYVDEDSWGQGTQVTVSS | high polyreactivity
QVQLVESGGGLVQAGGSLRLSCAASGSTFRVYAMGWYRQAPGKERELVAAISWSGGRTYYADSVKGRFTISRDNAKNTVYLQMNSLKPEDTAVYYCAKPGYLRPSRYDYWGQGTQVTVSS | high polyreactivity
QVQLVESGGGLVQAGGSLRLSCAASGSTFRVYAMGWYRQAPGKERELVAAITRIGGRTYYADSVKGRFTISRDNAKNTVYLQMNSLKPEDTAVYYCAARYPGGYSSGYNYWGQGTQVTVSS | high polyreactivity
QVQLVESGGGLVQAGGSLRLSCAASGSTFRVYAMGWYRQAPGKERELVANISWGGGRTYYADSVKGRFTISRDNAKNTVYLQMNSLKPEDTAVYYCAADIAWYTHYHRIFDYWGQGTQVTVSS | low polyreactivity
QVQLVESGGGLVQAGGSLRLSCAASGSTFRWNAMGWYTPAPGKERELVAAITSSGSTYYADSVKGRFTISRDNAKNTVYLQMNSLNPEDTAVYSCAGRANGYWNTYELDYWGQGIQVTVSS | low polyreactivity
QVQLVESGGGLVQAGGSLRLSCAASGSTFRWYAMGWYRQAPGKERELVAAIRSSGGSTYYADSVKGRFTISRDNAKNTVYLQMNSLKPEDTAVYYCNTYPARNFYSVAGGYWGQGTQVTVSS | low polyreactivity
QVQLVESGGGLVQAGGSLRLSCAASGSTFRWYAMGWYRQAPGKERELVAAISARGTSTYYADSVKGRFTISRDNAKNTVYLQMNSLKPEDTAVYYCAATRTYQLYRWAPRYYYWGQGTQVTVSS | high polyreactivity
QVQLVESGGGLVQAGGSLRLSCAASGSTFRWYAMGWYRQAPGKERELVAAITWSGGRTYYADSVKGRFTISRDNAKNTVYLQMNSLKPEDTAVYYCAADRGPEHWYDYYYWGQGTQVTVSS | high polyreactivity
QVQLVESGGGLVQAGGSLRLSCAASGSTFRYNAMGWYRQAPGKEREFVAAITTSGVRTYYADSVKGRFTISRDNAKNTVYLQMTSLKPEDSAVYYCAARANYIFYGMDYWGQGTLVTVSS | high polyreactivity
QVQLVESGGGLVQAGGSLRLSCAASGSTFRYNAMGWYRQAPGKERELVAAISKSGGSTYYADSVKGRFTISRDNAKNTVYLQMNSLKPEDTAVYYCAAKAYINNYDYWGQGTQVTVSS | high polyreactivity
QVQLVESGGGLVQAGGSLRLSCAASGSTFRYNAMGWYRQAPGKERELVAAISKSGGSTYYADSVKGRFTISRDNAKNTVYLQMNSLKPEDTAVYYCATSYPYRIYRSSYDYWGQGTQVTVSS | high polyreactivity
QVQLVESGGGLVQAGGSLRLSCAASGSTFRYNAMGWYRQAPGKVRELVASITWSGGDTYYADSVKGRFTISRDNAKNTVYLQMNSLKPEDTAVYYCNKRVHYIAGRGYDYWGQGNQVTVSS | low polyreactivity
QVQLVESGGGLVQAGGSLRLSCAASGSTFRYNAMGWYRQPPGKERELVAAISSGGSTNYADSVKGRFTISRDNAKNTVYLQMNSLKPEDTAVYYCAATRPRIPVYQNNYGYWGQGTQVTVSS | high polyreactivity
QVQLVESGGGLVQAGGSLRLSCAASGSTFRYSAMGWDRQAPGKEREFVAAISWSGSSTYYADSVKGRFTISRDNAKNTVYLQMNILKPEDTAGYYCAARYRYRSSSYDYWGQGTQVTVSS | high polyreactivity

Sequence | polyreactivity (PSR sort gate)
QVQLVESGGGLVQAGGSLRLSCAASGSTFRYYAMGWYRQAPGKERELVAAISGSGGRTYYADSVKGRFTISRDNAKNTVYLQMNSLKPEDTAVYYCAAQCGYYDSAYGSWGQGTQVTVSS | high polyreactivity
QVQLVESGGGLVQAGGSLRLSCAASGSTFRYYAMGWYRQAPGKERELVAAISRSGGRTYYADSVKGRFTISRDNAKNTVYLQMNSLKPEDTAVSYCATRGDGSSWGDHDYWGQGTQVTVSS | high polyreactivity
QVQLVESGGGLVQAGGSLRLSCAASGSTFRYYAMGWYRQAPGKERELVAAISWSGGSTYYADSVKGRFTISRDNAKNTVYLQMNSLKPEDTAVYYCNKAWFPYYYYRFDYWGQGTQVTVSS | high polyreactivity
QVQLVESGGGLVQAGGSLRLSCAASGSTFRYYAMGWYRQAPGKERELVAAITQSGGITYYADSVKGRFTISRDNAKNTVYLQMNSLKPEDTAVYYCAKRYYVDYDYWGQGTHVTVSS | low polyreactivity
QVQLVESGGGLVQAGGSLRLSCAASGSTFRYYAMGWYRQAPGKERELVAAITQSGGITYYADSVKGRFTISRDNAKNTVYLQMNSLKPEDTAVYYCAKRYYVDYDYWGQGTQVTVSS | low polyreactivity
QVQLVESGGGLVQAGGSLRLSCAASGSTFRYYAMGWYRQAPGKERELVAAITQSGGITYYADSVKGRFTISRDNANNTVYLQMNSLKPEDTAVYFCAKRYYVDYDYWGQGTQVTVSS | low polyreactivity
QVQLVESGGGLVQAGGSLRLSCAASGSTFRYYAMGWYRQAPGKERELVAAITSGGSTNYADSVKGRFTISRDNAKNTVYLQMNSLKPEDTAVYYCAAGRRLRHRYNQGGPDYGYWGQGSQVTVSS | low polyreactivity
QVQLVESGGGLVQAGGSLRLSCAASGSTFRYYAMGWYRQAPGKERELVAAITSGGSTNYADSVKGRFTISRDNAKNTVYLQMNSLKPEDTAVYYCAAGRRLRHRYNQGGPDYGYWGQGTQVTVSS | low polyreactivity
QVQLVESGGGLVQAGGSLRLSCAASGSTFRYYAMGWYRQAPGKERELVAAITSSGGRTYYADSVKGRFTISRDNAKNTVYLQMNSLKPEDTAVYYCAAYAYYHTGDDYWGQGTQVTVSS | high polyreactivity
QVQLVESGGGLVQAGGSLRLSCAASGSTFRYYAMGWYRQAPGKERELVATISSGGSTNYADSVKGRFTISRDNAKNTVYLQMNSLKPEDTAVYYCAAAYPQFWYWDYNYWGQGTQVTVSS | high polyreactivity
QVQLVESGGGLVQAGGSLRLSCAASGSTFRYYAMGWYRQAPGKERELVAVISTSGNTYYADSVKGRFTISRDNAKNTVYFQMNSLKPEDTAVYYCAARGVGGQISQEYDYWGQGTQVTVSS | low polyreactivity
QVQLVESGGGLVQAGGSLRLSCAASGSTFRYYDRGWYRQAPGKERELVAAITTSGDDTYYADSVKRRFTISRDNAKTTVYLQMNSLKPEDTAVYYCAADGYGGHKYELESWGQGTQVTVSS | low polyreactivity
QVQLVESGGGLVQAGGSLRLSCAASGSTFRYYGMGWYRQAPGKERELVAAISNGDSTNYADSVKGRFTISRDNAKNTVYLQMNSLKPEDTAVYYCATERYSYRVYGGITTFEYWGQGSQVTVSS | high polyreactivity
QVQLVESGGGLVQAGGSLRLSCAASGSTFRYYTMGWYRQAAGQERELVAAITSGGGSTYYADSVKGRFTISRDNAKNTVYLQMNSLKPEDTAVYYCAARTRGTADNYWGQGTQGTVSS | high polyreactivity
QVQLVESGGGLVQAGGSLRLSCAASGSTFRYYTMGWYRQAPGKERELVAAISGSGGITYYADSVKGRFTMSRDNAKNNVYLQMNSLKPEDTAVYYCNAGVFYRDDYWGQGTQVTVSS | high polyreactivity
QVQLVESGGGLVQAGGSLRLSCAASGSTFRYYVMGWYRQAPGKERELVAAISAGGGRTYYADSVKGRFTISRDNSKNTVYLQMNSLKPEDTAVYYCAAKSVTPYWQEYEYDYWGQGTQVTVSS | high polyreactivity
QVQLVESGGGLVQAGGSLRLSCAASGSTFSANDMGWYRQAPGKEREFDAAITTSDDSTYYADSVKGRFTISRDNAKNTVYLQMNSVKPEDTAVYYCNAYSGYSFFGLGFFYKYDYWGQGTQVTVSS | low polyreactivity
QVQLVESGGGLVQAGGSLRLSCAASGSTFSAYDMGWYRQAPGKERELVAAIDTGGTTYYADSVKGRFTISRDTAKNTVYVQMNSLKPEDTAVYYCIATIWYRDYGYWGQGTQVTVSS | low polyreactivity
QVQLVESGGGLVQAGGSLRLSCAASGSTFSDNARGWYRQAPGKERELVAAIKETGGSTYYADSVKGRCTISRDNAKNTVYLQMNSLKPEDTAVYYCNADIDPYGATYAIEYDYWGQGTQVTVSS | low polyreactivity
QVQLVESGGGLVQAGGSLRLSCAASGSTFSDYAMGWYRQAPGKERELVADISSDGSTYYADSVKGRFTISRDNAKNTVYLQMNSLKPEDTAVYYCNAGYPDYDWTWWHISYDYWGQGTQVTVSS | low polyreactivity
